Reference: PMC1184220

Key:
[1] = target: T1, TIAR (TIAR-b, short isoform) (UniProt Q01085 1-375); assay: UV crosslinking
T1 sequence: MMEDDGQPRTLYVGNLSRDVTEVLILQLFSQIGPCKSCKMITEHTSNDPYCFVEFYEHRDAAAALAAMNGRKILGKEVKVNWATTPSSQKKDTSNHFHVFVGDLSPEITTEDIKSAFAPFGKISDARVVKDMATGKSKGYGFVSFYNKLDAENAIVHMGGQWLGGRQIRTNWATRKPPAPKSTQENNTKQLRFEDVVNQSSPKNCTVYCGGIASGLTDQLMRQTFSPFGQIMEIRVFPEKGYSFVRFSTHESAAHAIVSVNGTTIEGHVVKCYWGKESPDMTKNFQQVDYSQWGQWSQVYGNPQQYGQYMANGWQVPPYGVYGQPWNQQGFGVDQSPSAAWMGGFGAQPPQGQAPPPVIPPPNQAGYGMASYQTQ

[2] = target: T1, TIAR (TIAR-b, short isoform); assay: competition
[3] = target: T1, TIAR (TIAR-b, short isoform); assay: UV crosslinking; remark: listed apart in the source
TIA-1 = target: T2, TIA-1 (UniProt P31483 1-386); assay: UV crosslinking
T2 sequence: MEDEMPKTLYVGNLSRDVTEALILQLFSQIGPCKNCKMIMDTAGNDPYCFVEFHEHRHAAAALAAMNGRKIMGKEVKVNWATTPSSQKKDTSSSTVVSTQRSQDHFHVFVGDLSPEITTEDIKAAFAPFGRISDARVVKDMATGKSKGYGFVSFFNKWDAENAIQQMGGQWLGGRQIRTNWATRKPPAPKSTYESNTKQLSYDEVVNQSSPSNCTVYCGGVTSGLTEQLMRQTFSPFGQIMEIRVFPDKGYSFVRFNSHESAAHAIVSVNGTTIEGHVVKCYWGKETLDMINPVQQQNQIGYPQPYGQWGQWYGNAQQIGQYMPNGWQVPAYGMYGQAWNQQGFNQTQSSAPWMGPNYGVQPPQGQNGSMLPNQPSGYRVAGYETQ

[4] = target: T1, TIAR (TIAR-b, short isoform); assay: EMSA
TIAR RRM1 = target: T3, TIAR RRM1 (UniProt Q01085 2-93); assay: UV crosslinking titration
T3 sequence: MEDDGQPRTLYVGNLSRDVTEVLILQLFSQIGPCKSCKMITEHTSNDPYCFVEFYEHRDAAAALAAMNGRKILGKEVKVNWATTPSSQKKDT

HuR = HuR (UniProt Q15717 1-326); assay: UV crosslinking
HuR, sequence (Q15717 whole entry, canonical isoform): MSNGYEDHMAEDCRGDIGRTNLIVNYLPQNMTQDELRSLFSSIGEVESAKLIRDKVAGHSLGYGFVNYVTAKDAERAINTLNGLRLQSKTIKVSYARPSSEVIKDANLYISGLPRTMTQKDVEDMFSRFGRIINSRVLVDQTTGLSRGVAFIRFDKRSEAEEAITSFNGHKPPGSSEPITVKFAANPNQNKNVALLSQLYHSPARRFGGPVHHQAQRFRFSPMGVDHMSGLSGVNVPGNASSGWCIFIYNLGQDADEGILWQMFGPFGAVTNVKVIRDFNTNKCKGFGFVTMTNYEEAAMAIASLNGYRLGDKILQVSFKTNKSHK

[5] = target: T1, TIAR (TIAR-b, short isoform); assay: UV crosslinking; remark: listed apart in the source
[6] = target: T1, TIAR (TIAR-b, short isoform); assay: UV crosslinking + immunoprecipitation
TIAR RRM2,3 = target: T4, TIAR RRM2,3 (UniProt Q01085 94-375); assay: UV crosslinking titration
T4 sequence: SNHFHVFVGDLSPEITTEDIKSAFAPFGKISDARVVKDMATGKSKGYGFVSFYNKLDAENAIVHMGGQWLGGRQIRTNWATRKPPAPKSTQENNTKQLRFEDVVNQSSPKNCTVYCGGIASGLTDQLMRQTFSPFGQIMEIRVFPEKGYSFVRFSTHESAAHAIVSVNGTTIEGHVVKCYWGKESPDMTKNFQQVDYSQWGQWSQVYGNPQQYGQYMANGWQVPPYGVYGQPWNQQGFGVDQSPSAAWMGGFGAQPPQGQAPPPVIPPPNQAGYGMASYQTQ

## AAAATGCTTTTTTTTTTTTA (ssDNA) [VEGF-AS1b]
[1]
  binding result: binds

## AAAATGCTTTTTTT (ssDNA) [VEGF-AS1b.2]
[2]
  binding result: no binding

B1: T7tiar full-length transcript (ssRNA)
RNA: GGGAUAGUAUUGUUUAUAUUGUUCCAAUACGAAAAAAAAAAAAUACUAUUCUCAUCUU
[3]
  binding result: binds

## AATAAATAAATGATAACAAATATTAAAATTAAAAAAG (ssDNA) [VEGF-AS2]
TIA-1
  binding result: no binding
[4]
  binding result: no binding
TIAR RRM1
  binding result: no binding
HuR
  binding result: no binding

B2: VEGF-S2/VEGF-AS2 duplex (dsDNA)
DNA 1: CTTTTTTAATTTTAATATTTGTTATCATTTATTTATT
DNA 2: AATAAATAAATGATAACAAATATTAAAATTAAAAAAG
[5]
  binding result: no binding

## TTTTTTTTTTTTTTT (ssDNA) [oligo(dT)15]
[1]
  binding result: binds

B3: T7tiar/T7 partial duplex template (mixed)
DNA 1: AAGATGAGAATAGTATTTTTTTTTTTTCGTATTGGAACAATATAAACAATACTATCCCTATAGTGAGTCGTATTA
DNA 2: TAATACGACTCACTATAGGG
[6]
  binding result: binds

## AGAATTAAATTCTTTAATACAAAATGCTTTTTTTTTTTTA (ssDNA) [VEGF-AS1]
TIA-1
  binding result: binds
HuR
  binding result: no binding
TIAR RRM2,3
  Kd: 3 nM

## TAAAAATAAATATGTACTACGGAATATCTCGAAAAAC (ssDNA) [VEGF-AS4]
[1]
  binding result: no binding

## CTTTTTTAATTTTAATATTTGTTATCATTTATTTATT (ssDNA) [VEGF-S2]
[3]
  binding result: binds

## TTAATATCTAAAATAAAATAAATT (ssDNA) [IL8-AS1]
[1]
  binding result: no binding

## AAAAUGCUUUUUUUUUUUUA (ssRNA) [rVEGF-AS1]
TIA-1
  binding result: binds
TIAR RRM1
  binding result: no binding
